B1: ExbB (natural protein, Escherichia coli, UniProt P0ABU7 1-244, looked up)
chain: MGNNLMQTDLSVWGMYQHADIVVKCVMIGLILASVVTWAIFFSKSVEFFNQKRRLKREQQLLAEARSLNQANDIAADFGSKSLSLHLLNEAQNELELSEGSDDNEGIKERTSFRLERRVAAVGRQMGRGNGYLATIGAISPFVGLFGTVWGIMNSFIGIAQTQTTNLAVVAPGIAEALLATAIGLVAAIPAVVIYNVFARQIGGFKAMLGDVAAQVLLLQSRDLDLEASAAAHPVRVAQKLRAG
notes: ExbB, Escherichia coli, full length; inner membrane protein of the Ton system; residues about 10-234 resolved in the crystal; Forms hexamers and pentamers depending on pH, so copies is left open; also called ExbB hexamer; ExbB pentamer; source: E. coli BL21 (DE3) Gold, pET-21b, co-expressed with ExbD, purified from the membrane fraction in detergent (IMAC, SEC); not shown: His6, C-terminal, kept
B2: ExbD (natural protein, Escherichia coli, UniProt P0ABV2 1-141, looked up)
chain: MAMHLNENLDDNGEMHDINVTPFIDVMLVLLIIFMVAAPLATVDVKVNLPASTSTPQPRPEKPVYLSVKADNSMFIGNDPVTDETMITALNALTEGKKDTTIFFRADKTVDYETLMKVMDTLHQAGYLKIGLVGEETAKAK
notes: ExbD, Escherichia coli, full length, no tag; only the TM helix is modelled in the cryo-EM maps; The PDB entries hold only the TM helix (ExbDTM) of ExbD; also called ExbDTM (its TM helix as modelled); ExbD trimer; source: E. coli BL21 (DE3) Gold, pET-21b, co-expressed with ExbB-His6, co-purified in detergent (IMAC, SEC)

Experiments:
[1] = target: the molecule itself; experiment: crystal structure; ExbBD complex purified in C8E4 or C10E5; crystals grown at pH 9.0 (0.1 M glycine, 0.15 M CaCl2, ~40% PEG 350 MME), 20°C; space group P2_(1), 2.8 Å, molecular replacement
[2] = target: the molecule itself; experiment: cryo-EM structure; single particle, frozen-hydrated ExbBD complex in LMNG, 10 mM Tris-HCl pH 8.0; reference-free 2D classification and 3D reconstruction of the hexameric complex at 6.7 Å, no symmetry applied
[3] = target: the molecule itself; experiment: negative-stain EM of 2D crystals; purified ExbBD complex (C8E4) reconstituted with E. coli total lipid extract by dialysis, 25 mM Na-citrate pH 5.4, 150 mM NaCl, 4°C; Fourier filtering of crystal patches
[4] = target: the molecule itself; experiment: cryo-EM structure; single particle, frozen-hydrated ExbBD complex in LMNG, 10 mM Na-citrate pH 5.4; reference-free 2D classification and 3D reconstruction of the pentameric complex at 7.1 Å, 5-fold symmetry enforced
ExbB [5] = target: B1; experiment: cryo-EM structure; single particle, frozen-hydrated ExbBD complex in LMNG, 10 mM Tris-HCl pH 8.0; reference-free 2D classification and 3D reconstruction of the hexameric complex at 6.7 Å, no symmetry applied; details: both partners purified
ExbB [6] = target: B1; experiment: cryo-EM structure; single particle, frozen-hydrated ExbBD complex in LMNG, 10 mM Na-citrate pH 5.4; reference-free 2D classification and 3D reconstruction of the pentameric complex at 7.1 Å, 5-fold symmetry enforced; details: both partners purified

## B1
[1]
  stoichiometry N: 6 subunits
[2]
  ratio of hexamer to pentamer (printed as pentamer:hexamer): 3 hexamer per pentamer
[3]
  stoichiometry N: 5 subunits
[4]
  ratio of pentamer to hexamer: 3 pentamer per hexamer

## B2
ExbB [5]
  stoichiometry N: 3 ExbD per ExbB hexamer
[2]
  stoichiometry N: 3 subunits
ExbB [6]
  stoichiometry N: 1 ExbD per ExbB pentamer

Source: paper PMC5903867, “Hexameric and pentameric complexes of the ExbBD energizer in the Ton system” (eLife, 2018)
